# Measurements taken from article PMC3851687 (2013).
# T1: humanized dPHD-HD1 (Pygo PHD F773W in complex with Lgs HD1) (Drosophila, UniProt Q9V9W8 747-804; Q961D9 321-353, F773W)
# T1 sequence 1: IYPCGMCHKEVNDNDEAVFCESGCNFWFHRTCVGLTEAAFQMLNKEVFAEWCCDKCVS
# T1 sequence 2: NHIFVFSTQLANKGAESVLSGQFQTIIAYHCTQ
# Key:
# [1] = biological target: T1, humanized dPHD-HD1 (Pygo PHD F773W in …); experiment: ITC; linked PHD-HD1 complex (uncleaved)
# [2] = biological target: T1, humanized dPHD-HD1 (Pygo PHD F773W in …); experiment: ITC; linked PHD-HD1 complex (uncleaved linker)
binder,measurement,setting,value
ARTKQTARKSTGGKA (dimethyl-lysine at K4 (K4me2)) [H3K4me2 15-mer (histone H3 tail peptide dimethylated at lysine 4)],Kd,[1],7.5 µM
same,Kd,[2],7.5 µM
